# Experimental data as given in paper PMC12494034.
# Several values for one entry are separate records, joined by “and”; a condition that tells them apart may be missing. Equal entries are not always repeated.
# Columns and labels:
# Assay in all cases: cryo-EM structure; single-particle analysis of purified HFTV1 virions (DNA-filled and empty particles sorted by 2D classification) in 18% SW buffer (2.47 M NaCl, 89 mM MgCl2, 85 mM MgSO4, 56 mM KCl, 3 mM CaCl2, 48 mM tris-HCl, pH 7.2); focused refinements of head, turrets, portal, tail, baseplate and tail fibers
# [1] = biological target: baseplate hub gp44 of HFTV1 (Haloferax tailed virus 1 (HFTV1))
# [2] = biological target: baseplate-tail connector gp41 of HFTV1 (Haloferax tailed virus 1 (HFTV1))
# [3] = biological target: capsid stabilization protein gp18 of HFTV1 (Haloferax tailed virus 1 (HFTV1))
# [4] = biological target: head-tail connector gp26 of HFTV1 (Haloferax tailed virus 1 (HFTV1))
# [5] = biological target: major capsid protein gp19 of Haloferax tailed virus 1 (HFTV1) (Haloferax tailed virus 1 (HFTV1))
# [6] = biological target: portal interface protein gp21 of HFTV1 (Haloferax tailed virus 1 (HFTV1))
# [7] = biological target: portal protein gp13 of HFTV1 (Haloferax tailed virus 1 (HFTV1))
# [8] = biological target: tail completion protein gp29 of HFTV1 (Haloferax tailed virus 1 (HFTV1))
# [9] = biological target: tail fiber protein gp42 of HFTV1 (Haloferax tailed virus 1 (HFTV1))
# [10] = biological target: tail tube protein gp35 of HFTV1 (Haloferax tailed virus 1 (HFTV1))
# [11] = biological target: tape measure protein gp40 of HFTV1 (Haloferax tailed virus 1 (HFTV1))
# [12] = biological target: turret base protein gp30 of HFTV1 (Haloferax tailed virus 1 (HFTV1))
# [13] = biological target: turret head protein gp31 of HFTV1 (Haloferax tailed virus 1 (HFTV1))
substance,measurement,setting,value
baseplate hub gp44 of HFTV1 (natural protein),stoichiometry N,[1],3
baseplate-tail connector gp41 of HFTV1 (natural protein),stoichiometry N,[2],3
capsid stabilization protein gp18 of HFTV1 (natural protein),stoichiometry N,[3],3
head-tail connector gp26 of HFTV1 (natural protein),stoichiometry N,[4],12
major capsid protein gp19 of Haloferax tailed virus 1 (HFTV1) (natural protein),stoichiometry N,[5],5 and 6
portal interface protein gp21 of HFTV1 (natural protein),stoichiometry N,[6],5
portal protein gp13 of HFTV1 (natural protein),stoichiometry N,[7],12
tail completion protein gp29 of HFTV1 (natural protein),stoichiometry N,[8],6
tail fiber protein gp42 of HFTV1 (natural protein),stoichiometry N,[9],3
tail tube protein gp35 of HFTV1 (natural protein),stoichiometry N,[10],6
tape measure protein gp40 of HFTV1 (natural protein),stoichiometry N,[11],6
turret base protein gp30 of HFTV1 (from UniProt A0A410N6V5 1-115) (natural protein),stoichiometry N,[12],6
turret head protein gp31 of HFTV1 (natural protein),stoichiometry N,[13],3
